{
  "source": "patent US20080085863A1",
  "about": "(WISCONSIN ALUMNI RESEARCH FOUNDATION, published 2008)",
  "binders": {"B1": {"name": "recombinant mutant α2-macroglobulin with the native bait region replaced by sequences flanking the human probiglycan BMP-1 cleavage site (b-α2M) (other)", "chain": "DYKDDDDKSVSGKPQYMVLVPSLLHTETTEKGCVLLSYLNETVTVSASLESVRGNRSLFTDLEAENDVLHCVAFAVPKSSSNEEVMFLTVQVKGPTQEFKKRTTVMVKNEDSLVFVQTDKSIYKPGQTVKFRVVSMDENFHPLNELIPLVYIQDPKGNRIAQWQSFQLEGGLKQFSFPLSSEPFQGSYKVVVQKKSGGRTEHPFTVEEFVLPKFEVQVTVPKIITILEEEMNVSVCGLYTYGKPVPGHVTVSICRKYSDASDCHGEDSQAFCEKFSGQLNSHGCFYQQVKTKVFQLKRKEYEMKLHTEAQIQEEGTVVELTGRQSSEITRTITKLSFVKVDSHFRQGIPFFGQVRLVDGKGVPIPNKVIFIRGNEANYYSNATTDEHGLVQFSINTTNVMGTSLTVRVNYKDRSPCYGYQWVSEEHEEAHHTAYLVFSPSKSFVHLEPMSHELPCGHTQTVQAHYILNGGTLLGLKKLSFYYLIMAKGGIVRTGTHGLLVKQEDMKGHFSISIPVKSDIAPVARLLIYAVLPTGDVIGDSAKYDVENCLANKVDLSFSPSQSLPASHAHLRVTAAPQSVCALRAVDQSVLLMKPDAELSASSVYNLLPEKDLTGFPGPLNDQDDEDCINRHNVYINGITYTPVSSTNEKDMYSFLEDMGLKAFTNSKIRKPKMCPQFWDFTLDDGPFMMNDEEASGADTSGVLDPDSVTPTYSAMVRKYFPETWIWDLVVVNSAGVAEVGVTVPDTITEWKAGAFCLSEDAGLGISSTASLRAFQPFFVELTMPYSVIRGEAFTLKATVLNYLPKCIRVSVQLEASPAFLAVPVEKEQAPHCICANGRQTVSWAVTPKSLGNVNFTVSAEALESQELCGTEVPSVPEHGRKDTVIKPLLVEPEGLEKETTFNSLLCPSGGEVSEELSLKLPPNVVEESARASVSVLGDILGSAMQNTQNLLQMPYGCGEQNMVLFAPNIYVLDYLNETQQLTPEIKSKAIGYLNTGYQRQLNYKHYDGSYSTFGERYGRNQGNTWLTAFVLKTFAQARAYIFIDEAHITQALIWLSQRQKDNGCFRSSGSLLNNAIKGGVEDEVTLSAYITIALLEIPLTVTHPVVRNALFCLESAWKTAQEGDHGSHVYTKALLAYAFALAGNQDKRKEVLKSLNEEAVKKDNSVHWERPQKPKAPVGHFYEPQAPSAEVEMTSYVLLAYLTAQPAPTSEDLTSATNIVKWITKQQNAQGGFSSTQDTVVALHALSKYGAATFTRTGKAAQVTIQSSGTFSSKFQVDNNNRLLLQQVSLPELPGEYSMKVTGEGCVYLQTSLKYNILPEKEEFPFALGVQTLPQTCDEPKAHTSFQISLSVSYTGSRSASNMAIVDVKMVSGFIPLKPTVKMLERSNHVSRTEVSSNHVLIYLDKVSNQTLSLFFTVLQDVPVRDLKPAIVKVYDYYETDEFAIAEYNAPCSKDLGNA", "modifications": "One subunit is given; cross-linking showed that the protein forms tetramers. The internal thioester and glycosylation are not carried by the letters.", "notes": "also called recombinant b-α2M; modified α2M"}},
  "key": {"[1]": {"biological_target": "T1, Flag-tagged recombinant bone morphogenetic protein-1 (BMP-1) (UniProt P13497-2 121-730, limits assumed)", "T1 sequence (looked up)": "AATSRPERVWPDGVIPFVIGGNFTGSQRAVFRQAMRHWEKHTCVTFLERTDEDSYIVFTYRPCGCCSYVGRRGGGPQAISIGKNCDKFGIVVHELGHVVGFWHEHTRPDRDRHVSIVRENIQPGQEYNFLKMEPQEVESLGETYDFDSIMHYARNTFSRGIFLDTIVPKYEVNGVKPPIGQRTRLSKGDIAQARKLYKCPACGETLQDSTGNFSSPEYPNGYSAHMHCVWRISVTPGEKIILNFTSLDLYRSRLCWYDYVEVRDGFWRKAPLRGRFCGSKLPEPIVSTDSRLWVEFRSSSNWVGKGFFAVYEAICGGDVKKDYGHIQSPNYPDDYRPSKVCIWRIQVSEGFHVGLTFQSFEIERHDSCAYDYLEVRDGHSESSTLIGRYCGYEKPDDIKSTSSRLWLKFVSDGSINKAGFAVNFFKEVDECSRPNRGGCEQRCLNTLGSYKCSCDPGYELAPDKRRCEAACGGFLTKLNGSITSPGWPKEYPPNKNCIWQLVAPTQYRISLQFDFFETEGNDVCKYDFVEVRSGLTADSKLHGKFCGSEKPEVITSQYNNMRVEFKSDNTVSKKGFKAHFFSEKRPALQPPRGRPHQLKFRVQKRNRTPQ", "assay": "cell-based or functional assay"}, "[2]": {"biological_target": "T1, Flag-tagged recombinant bone …", "assay": "time course of covalent complex formation of 40 nM 35S-BMP-1 with increasing b-α2M, SDS-PAGE densitometry (method of Enghild et al.)", "procedure": "(§1) 40 nM ³⁵S-labeled BMP-1 was incubated with 20, 40, 80, 160, and 240 nM plasma α₂M, or recombinant wild type α₂M or with 5, 10, 20, 40, and 80 nM b-α₂M at 37° C. in 50 mM Tris-HCl, pH 7.5, 100 mM NaCl and 10 mM CaCl₂. Reactions were stopped at 10, 30, 60, 90 and 120 minutes (plasma α₂M and recombinant wild type α₂M), or at 2, 5, 10, 20 and 30 minutes (b-α₂M) by adding. SDS-PAGE sample buffer and boiling 5 minutes at 95° C. Protein samples were separated on 7.5% acrylamide SDS-PAGE gels, which were then treated with EN³HANCE (DuPont) and exposed to film. Percentages of BMP-1 incorporated into high molecular weight complexes were determined by densitometry and kinetic parameters were determined essentially via the method of Enghild J, et al, “Interaction of human rheumatoid synovial collagenase (matrix metalloproteinase 1) and stromelysin (matrix metalloproteinase 3) with human alpha 2-macroglobulin and chicken ovostatin. Binding kinetics and identification of matrix metalloproteinase cleavage sites,” J. Biol. Chem. 264:8779-8785 (1989).\n(§2) To obtain a quantitative comparison of the rates of interaction of BMP-1 with the various wild type and mutant forms of α₂M, we employed the methodology of Enghild et al., supra, which involves quantification of covalent proteinase-α₂M complex formation, subsequent to incubation of radiolabeled proteinase with α₂M."}, "[3]": {"biological_target": "T1, Flag-tagged recombinant bone …", "assay": "ratio of second order rate constants, 35S-BMP-1 complex formation", "procedure": "as §1, §2"}},
  "data": [
    {"binder": "B1", "values": [
      {"measurement": "pCP inhibitory activity, IC50", "setting": "[1]", "result": 1.88, "unit": "nM"},
      {"measurement": "α2M inhibition of BMP-1 (fold enhancement over the native bait region)", "setting": "[1]", "result": "~25", "unit": "fold"},
      {"measurement": "Ki", "setting": "[2]", "result": 36.4, "unit": "nM"},
      {"measurement": "Relative effectiveness (against recombinant α2M = 1)", "setting": "[3]", "result": 23.7, "unit": "fold"},
      {"measurement": "fold more effective in interacting with BMP-1 than wild type α2M from plasma (second order rate constants)", "setting": "[3]", "result": 15.7, "unit": "fold"}
    ]}
  ]
}
